# Test results published in publication PMC12561426, “Dissecting the Interplay Between NRF2 and BACH1 at CsMBEs”.
# B1: HMOX1 CsMBE 30-mer (dsDNA)
# DNA 1: CTCGGGACCGTGACTCAGCAGGAAAAACAC
# DNA 2: GTGTTTTTCCTGCTGAGTCACGGTCCCGAG
# Legend:
# [1] = biological target: NRF2 DBD of NRF2-sMafGχ;sMafG DBD of chimeras (Homo sapiens?;Homo sapiens?, UniProt Q16236;O15525 451-567;1-162, |); experiment: EMSA; apparent; TEV and 3C cleaved; 150 mM NaCl, 50 mM HEPES pH 7.9, 10% glycerol, 1 mM TCEP, 1 mM DTT, 2 mM MgCl2; 3 nM DNA; TEV and 3C 50 ug/mL each, 4 h 25 °C; competition then O/N 4 °C; gels 4 °C in 1X TBE; conditions: protein: recombinant;recombinant; tags: 3C/TEV-cleavable linker with His tags to sMafG;fused C-terminal of the linker; copies: 1;1; label: 5' fluorescein on forward strand; blunt
# [2] = biological target: BACH1 DBD of BACH1-sMafGχ;sMafG DBD of chimeras (Homo sapiens?;Homo sapiens?, UniProt O14867;O15525 511-627;1-162, |); experiment: as above; conditions: protein: recombinant;recombinant; tags: 3C/TEV-cleavable linker with His tags to sMafG;fused C-terminal of the linker; copies: 1;1; label: 5' fluorescein on forward strand; blunt
binder,measurement,setting,value
B1,Kd,[1],58 ± 3 nM
same,Kd,[2],49 ± 1.9 nM
